# ± gives the standard deviation of the averaged measurements.
# Test system: Saccharomyces cerevisiae
# Assay: protein stability index of tFT-peptide fusion (C-terminal peptide) (PSI (0-1 scale)); higher = more stable (slower turnover)
# Settings: genetic background: wild type; temperature: 30 C
# Procedure: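 Multiplexed protein stability (MPS) profiling in S. cerevisiae. Random 12-aa peptides (tFT-X12 library) are fused to the C-terminus of a sfGFP-mCherry tandem fluorescent timer, after mCherry and a GGGS linker. Cells are FACS-sorted into 8 mCherry/sfGFP bins and deep-sequenced. The protein stability index (PSI) is the read-weighted bin average, scaled from 0 (unstable) to 1 (stable). Only peptides with >10 reads are reported; cells were grown at 30 °C in SC-His with glucose.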
# 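Note: PSI is a weighted mean of sequencing reads over stability bins, variants kept only with over 10 reads, mCherry proximal and sfGFP distal, peptide attached via GGGS linker.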
row,Sequence,protein stability index
1,SLFLSRRSLYRV,0.738 ± 0.034
2,VGSDICLGLCLL,0.871 ± 0.02
3,RKHMCSYIRVSR,0.723 ± 0.085
4,ILKKLNQEINKE,0.698 ± 0.028
5,NQNKENKEIDRK,0.64 ± 0.097
6,SPPPPPPRSPPL,0.606 ± 0.0074
7,SAKQTYFKRVAQ,0.66 ± 0.042
8,KKKKPKNKSKDK,0.634 ± 0.095
9,HTVPTLLPPNVP,0.665 ± 0.015
10,PPSPAFTTHLPP,0.576 ± 0.0064
11,RHLACFWFRPPW,0.694 ± 0.018
12,RQRSTGGISNRS,0.718 ± 0.043
13,TNKKEPTMTRKK,0.72528 ± 0.00042
14,KNNVVKIEEEKK,0.751 ± 0.013
15,QQPPSSGTPDNH,0.703 ± 0.027
16,RWGANSVSLEGE,0.737 ± 0.02
17,RHLRSGTRAKVY,0.678 ± 0.013
18,LIFDISDLVWYI,0.636 ± 0.031
19,GHLRPFPPPLLP,0.748 ± 0.089
20,SSRPPLPPPRIH,0.618 ± 0.017
21,LVGAGREGRFVA,0.732 ± 0.083
22,VLLPEPCALRFT,0.551 ± 0.029
23,KEDGEIIDRYVL,0.616 ± 0.074
24,CSPGLSGCVSYV,0.665 ± 0.12
25,CFVSFFWRCFFG,0.515 ± 0.045

row,Sequence,protein stability index
1,NVEPWTRGMGSA,0.659 ± 0.02
2,RCCGRSRLVVPW,0.6986 ± 0.0023
3,WKRDSCFFIEAG,0.638 ± 0.042
4,SPRLSAPPPPPP,0.6766 ± 0.0046
5,FGGFVPSSQCLI,0.712 ± 0.018
6,VSAPRLRVSCNP,0.696 ± 0.014
7,VYLVVSSSMDYR,0.633 ± 0.078
8,PLSPPPPSHIPP,0.653 ± 0.023
9,WPAFYTSRLLLR,0.615 ± 0.034
10,GGVCCGGLRGVS,0.7398 ± 0.0039
11,ITFTCRHQGKKK,0.759 ± 0.095
12,GCQLLSEVSVCL,0.667 ± 0.0079
13,RRAAYARVFCRI,0.641 ± 0.046
14,EGNPPTRPRSLG,0.682 ± 0.052
15,RRPLAPHPPLPP,0.678 ± 0.01
16,YRFSKELEQKGQ,0.68281 ± 0.0003
17,FTPPPLLLPPPP,0.698 ± 0.0037
18,CGLSYSAVDLGV,0.684 ± 0.01
19,ESLVIIIAGSMF,0.567 ± 0.15
20,GGGGCVMGVGRV,0.668 ± 0.0092
21,VCPRLISPLILL,0.584 ± 0.027
22,LFLYLGSGARAV,0.721 ± 0.019
23,IKSTYRNPLPPL,0.657 ± 0.038
24,VCDLLLTLSFCV,0.587 ± 0.017
25,KASAASLFILMS,0.611 ± 0.012

row,Sequence,protein stability index
1,VWSLGLSVVGLW,0.649 ± 0.092
2,SQLAGPPLPPPT,0.751 ± 0.021
3,DPPPPSPPASMP,0.663 ± 0.036
4,APPPPPPPPSFP,0.687 ± 0.055
5,GRGGIGDGGPVW,0.6395 ± 0.00092
6,CVLVGGVPAGGG,0.6174 ± 0.0028
7,AFTLQSRLSSPS,0.655 ± 0.012
8,AREGARVVPVGR,0.717 ± 0.014
9,HCSWRSLMTLAG,0.642 ± 0.031
10,IAVSSHPVLVCK,0.5961 ± 0.0029
11,EKIVHEGAHGWR,0.681 ± 0.02
12,PRPAAPSPPPLP,0.588 ± 0.014
13,DSVVGFCGYWGG,0.706 ± 0.088
14,TSSEREGHYCVR,0.693 ± 0.034
15,VREVTIGGGLGE,0.707 ± 0.0087
16,LPPSTYPASTPS,0.674 ± 0.054
17,LAFFPRGTPPHS,0.67 ± 0.029
18,VNELYDNETTYV,0.734 ± 0.035
19,RSDKRTRYRIII,0.751 ± 0.17
20,SERPVPTSISLR,0.682 ± 0.0069
21,VDTNIRRTATYS,0.729 ± 0.066
22,NRDSALGPTWAP,0.718 ± 0.034
23,GGVSRRVNGREA,0.708 ± 0.008
24,PGTLLHPLSVGR,0.668 ± 0.019
25,ASYFPLRLLGFL,0.65 ± 0.051

row,Sequence,protein stability index
1,QLHGWMTRNPLL,0.746 ± 0.051
2,SGTPTFTPSYPS,0.717 ± 0.026
3,KEEYSYQRVGEL,0.661 ± 0.015
4,LGYGERAGVGKR,0.6954 ± 0.0049
5,EGSSVITFAGGG,0.664 ± 0.046
6,LWVREVVVVGTV,0.519 ± 0.013
7,GGRAQVGGWWGR,0.774 ± 0.031
8,SGLFGDAVPCCV,0.632 ± 0.03
9,RKLHDKDDPKTI,0.681 ± 0.03
10,FGCRARYDLVLI,0.641 ± 0.098
11,PPPLSLSCPFRP,0.712 ± 0.052
12,SFGSPLFFFPFL,0.736 ± 0.036
13,GGTRSDGYTQSR,0.707 ± 0.017
14,WGSWCLVPDGNE,0.717 ± 0.084
15,SVLVLGRSRPSF,0.688 ± 0.047
16,PPPRSLPPISPV,0.623 ± 0.02
17,GVVERGRRAGEG,0.659 ± 0.028
18,HARAGTKPLTGY,0.678 ± 0.0092
19,SLFPAGWAGFSD,0.73 ± 0.011
20,PLPALPPPPRGP,0.636 ± 0.026
21,FWGQNKVCLSCQ,0.571 ± 0.09
22,PPPPRPSPPSLP,0.676 ± 0.0058
23,LLDGGGGGVGEG,0.765 ± 0.011
24,GESPSRVRSSAG,0.694 ± 0.036
25,ESQSLLLFQEPS,0.696 ± 0.057

row,Sequence,protein stability index
1,SASVACFCGLVV,0.7 ± 0.023
2,VDTPPPHHSPLL,0.733 ± 0.068
3,TPPLPPPPPPIH,0.7413 ± 0.0029
4,VGFFLGVLLSLL,0.521 ± 0.0085
5,CSLGCSLSALDS,0.663 ± 0.025
6,LTHSTLCYASDL,0.677 ± 0.018
7,FSYCFRLLPSSL,0.558 ± 0.096
8,LLNTSPPRSVLH,0.653 ± 0.01
9,PSPPIPALSFST,0.684 ± 0.03
10,GKRHICFNHSGE,0.6966 ± 0.0045
11,GDRGFTTEAGNC,0.67 ± 0.018
12,FSLGQCLFGLWV,0.612 ± 0.026
13,RLVAHPSRPLPV,0.647 ± 0.033
14,LYSGADPLPWGR,0.716 ± 0.01
15,GDQTLVSSRQSG,0.6603 ± 0.002
16,WGAGGGGWWGGV,0.731 ± 0.03
17,SEFKLVVGSRSD,0.715 ± 0.032
18,LAPPPPARPALP,0.699 ± 0.0076
19,PPRLDLPFPLSR,0.747 ± 0.08
20,WSRGGGGHKEAM,0.639 ± 0.022
21,RPGPRAASADCP,0.72 ± 0.025
22,PSPPFPPPSPPP,0.687 ± 0.02
23,SPTPTSLTPPDF,0.733 ± 0.049
24,IKKEENKNENQE,0.6809 ± 0.0035
25,QNGAEESVSVGT,0.662 ± 0.042

row,Sequence,protein stability index
1,VDSSGSQPRGNR,0.648 ± 0.039
2,FLFHAIGTCRLC,0.671 ± 0.015
3,RGGGVRYGVARR,0.68 ± 0.059
4,SFILRRISSAIS,0.645 ± 0.014
5,RGIYSIGASGRS,0.695 ± 0.033
6,RKKKKDKSAIKE,0.722 ± 0.018
7,WVKGRVKIEGGQ,0.68 ± 0.042
8,GRGVVGLWVSGT,0.699 ± 0.021
9,GRGFGFDITISS,0.712 ± 0.098
10,RKKENRYKIEVK,0.6799 ± 0.0017
11,FVGMLSDRAPPP,0.742 ± 0.041
12,SPTPHTLRLLPT,0.662 ± 0.011
13,FLPPPPTPSPPY,0.723 ± 0.043
14,GCLCWVLSGRGA,0.68 ± 0.035
15,GVPGQFVSENII,0.679 ± 0.027
16,KDVYEKHLNKQT,0.722 ± 0.1
17,VPRMLSTPKAQP,0.723 ± 0.01
18,VAWAGRGPGRSG,0.713 ± 0.024
19,RKSKYKGTQRIN,0.564 ± 0.011
20,APPLPSAPPPPR,0.668 ± 0.031
21,ASPLYPRPPVRG,0.651 ± 0.014
22,SSLRPPPPLPPP,0.682 ± 0.012
23,PRPPPPPASVCR,0.6579 ± 0.00069
24,AEGGGWSFELEG,0.746 ± 0.02
25,SRHGFLVNMCTL,0.683 ± 0.028

row,Sequence,protein stability index
1,KAGCDYYHRRSF,0.675 ± 0.061
2,SMWNFPRLAKTR,0.685 ± 0.018
3,LSLPPHSPPLHR,0.702 ± 0.04
4,DMVSLGLAILIT,0.492 ± 0.021
5,GTRGVFEVCMDG,0.704 ± 0.025
6,NTTITKMYTKEW,0.714 ± 0.05
7,NVEARLARVHWM,0.73 ± 0.12
8,FASFLSIPTRFS,0.712 ± 0.02
9,NPSNEKERRKKN,0.704 ± 0.02
10,KVSIINAWKEKI,0.679 ± 0.044
11,KEVDGRALVAEE,0.655 ± 0.035
12,SPPRAGTPTSRP,0.667 ± 0.097
13,GFRALRCPTAFS,0.742 ± 0.078
14,CGGRKTPPPPRH,0.688 ± 0.054
15,FCCVETRRCVRL,0.717 ± 0.16
16,TFSHRVICTGND,0.733 ± 0.072
17,VVSYVHTQPPLS,0.684 ± 0.073
18,RPRVETGGLPWV,0.703 ± 0.029
19,LPHSPHRAAYPN,0.8 ± 0.013
20,SCPPLKYNNKTY,0.66 ± 0.015
21,LSPPPPPPVFSP,0.727 ± 0.026
22,PLATLIPPLIPS,0.554 ± 0.084
23,NQDIKAENTIKL,0.668 ± 0.057
24,RGLGCEVGTVEV,0.768 ± 0.0077
25,MDGAVRRCLVRG,0.666 ± 0.062

row,Sequence,protein stability index
1,LSFWGLLSFWTP,0.594 ± 0.02
2,FLFLTCPFSFSF,0.633 ± 0.018
3,LPRPPPPSPPPP,0.7 ± 0.042
4,PLSLPLSLLCPP,0.698 ± 0.051
5,QAVTSVGTTNIV,0.689 ± 0.023
6,PPPPPFLPPTPP,0.622 ± 0.041
7,IGRWGVRWKAVG,0.512 ± 0.053
8,VGYGEVSGGGRM,0.732 ± 0.026
9,PTPIPLGLHSLS,0.705 ± 0.048
10,RTRRRQELNHSK,0.735 ± 0.2
11,KYYRKKNIEKEN,0.575 ± 0.017
12,SLKIHIKQIEKK,0.766 ± 0.022
13,GRDKLNEDRDKV,0.647 ± 0.0095
14,GVQFSVWCGSVG,0.7 ± 0.04
15,SLEQRPLQRPPS,0.6941 ± 0.0063
16,HMCSTYGKLRLD,0.622 ± 0.052
17,KIGVHRGRGGRM,0.614 ± 0.13
18,SIPVPFSFPLFI,0.598 ± 0.0065
19,PPPPPRPLPPLP,0.695 ± 0.043
20,PGIGMVCAVAEG,0.687 ± 0.0082
21,RGCGGGRVAREC,0.689 ± 0.051
